Data from article PMC3511649.

Tests used:
[1] = molecular target: OG488-EGR labeled Gla-domainless factor IXa (GD-FIXa) (human) (UniProt P00740); experiment: fluorescence polarisation
[2] = molecular target: OG488-EGR labeled wild-type factor IXa (human) (UniProt P00740); experiment: fluorescence polarisation

Sequence of UniProt P00740 (P00740 47-191, chain 1 of 2): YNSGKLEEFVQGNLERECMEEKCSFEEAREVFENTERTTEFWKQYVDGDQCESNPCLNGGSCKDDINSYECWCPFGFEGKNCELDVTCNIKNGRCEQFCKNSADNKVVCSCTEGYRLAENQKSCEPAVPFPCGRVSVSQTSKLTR
Sequence of UniProt P00740 (P00740 227-461, chain 2 of 2): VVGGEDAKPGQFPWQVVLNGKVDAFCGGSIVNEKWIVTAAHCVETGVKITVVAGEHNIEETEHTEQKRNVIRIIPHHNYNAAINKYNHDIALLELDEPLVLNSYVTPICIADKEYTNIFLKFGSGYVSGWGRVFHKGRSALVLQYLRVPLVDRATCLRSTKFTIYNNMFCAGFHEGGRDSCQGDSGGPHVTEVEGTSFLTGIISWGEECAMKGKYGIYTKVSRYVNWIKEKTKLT

human recombinant factor VIIIa (complex)
Kd [1]: 0.31 µM | Kd [2]: 0.0015 µM
